# Experimental data taken from patent US20090291890A1 (published 2009).
# Where “and” joins values, the source holds several entries; their conditions need not be identical. Equal values may be shown once.
# Experiments:
# [1] = target: Gla swap FIX-FVIIa (human)
# [2] = target: A122N/G124S/A175S/S222A/H257A/Q286R/M298Q-FVIIa (human)
# [3] = target: {Gla swap FIX/E40L}/Q286R/M298Q-FVIIa (human)
# [4] = target: T128N/P129A/A175S/Q286R-FVIIa (human)
# [5] = target: Q286R/M298Q/Q366N-FVIIa (human)
# [6] = target: T128N/P129A/T239V/Q286R/M298Q-FVIIa (human)
# [7] = target: T128N/P129A/T239V/Q286R/M298Q/H373F-FVIIa (human)
# [8] = target: S52A/S60A/V158D/E296V/M298Q-FVIIa (human)
# [9] = target: T239V/Q286R/H373F-FVIIa (human)
# [10] = target: S222A/H257A/Q286R-FVIIa (human)
# [11] = target: T239I/M298Q/H373F-FVIIa (human)
# [12] = target: T128N/P129A/A175S/Q286R/M298Q-FVIIa (human)
# [13] = target: T128N/P129A/S222A/T239V/H257A/Q286R/M298Q-FVIIa (human)
# [14] = target: V158D/Q286R/E296V/M298Q/H373F-FVIIa (human)
# [15] = target: Gla swap FIX/S222A/Q286R/M298Q/H373F-FVIIa (human)
# [16] = target: {Gla swap FIX/Q44S}/Q286R/M298Q-FVIIa (human)
# [17] = target: S52A/S60A/S222A/H257A/Q286R/M298Q-FVIIa (human)
# [18] = target: T128N/P129A/A175S/S222A-FVIIa (human)
# [19] = target: GlaSwapFIX/S222A/T239I/Q286R-FVIIa (human)
# [20] = target: V158D/Q286R/E296V/M298Q-FVIIa (human)
# [21] = target: T128N/P129A/T239I/Q286R/M298Q/H373F-FVIIa (human)
# [22] = target: S222A/T239I/H257A/Q286R/M298Q-FVIIa (human)
# [23] = target: A122N/G124S/A175S/Q286R-FVIIa (human)
# [24] = target: T128N/P129A/A175S/S222A/H257A/Q286R/M298Q-FVIIa (human)
# [25] = target: S222A/T239I-FVIIa (human)
# [26] = target: A122N/G124S/A175S/Q286R/M298Q/H373F-FVIIa (human)
# [27] = target: T239I/Q286R/M298Q/H373F-FVIIa (human)
# [28] = target: S119N/L121S/A175S-FVIIa (human)
# [29] = target: H257A/Q286R-FVIIa (human)
# [30] = target: S222A/Q286R/M298Q-FVIIa (human)
# [31] = target: T128N/P129A/V158D/E296V/M298Q-FVIIa (human)
# [32] = target: V158D/T239V/E296V/M298Q-FVIIa (human)
# [33] = target: H257A/Q286R/M298Q-FVIIa (human)
# [34] = target: {Gla swap FIX/K43I}/Q286R/M298Q/Q366N-FVIIa (human)
# [35] = target: S222A/Q286R/M298Q/H373F-FVIIa (human)
# [36] = target: Gla swap FIX/S222A/T239V/Q286R-FVIIa (human)
# [37] = target: Gla swap FIX/T239V/Q286R/M298Q-FVIIa (human)
# [38] = target: T239I/Q286R/M298Q/Q366N-FVIIa (human)
# [39] = target: T128N/P129A/A175S/Q366V-FVIIa (human)
# [40] = target: A122N/G124S/A175S-FVIIa (human)
# [41] = target: A122N/G124S/A175S/S222A-FVIIa (human)
# [42] = target: T128N/P129A/Q286R/M298Q-FVIIa (human)
# [43] = target: {Gla swap FIX/K43I}/Q286R/M298Q-FVIIa (human)
# [44] = target: T239V/Q286R/M298Q/Q366N-FVIIa (human)
# [45] = target: T128N/P129A/S222A-FVIIa (human)
# [46] = target: Gla swap FIX/T128N/P129A/Q286R/M298Q-FVIIa (human)
# [47] = target: T128N/P129A/Q286R/M298Q/Q366N/H373F-FVIIa (human)
# [48] = target: A122N/G124S/A175S/Q366V-FVIIa (human)
# [49] = target: M298Q/H373F-FVIIa (human)
# [50] = target: T239V/Q286R/M298Q-FVIIa (human)
# [51] = target: T128N/P129A/A175S-FVIIa (human)
# antithrombin III, sequence (P01008 33-464): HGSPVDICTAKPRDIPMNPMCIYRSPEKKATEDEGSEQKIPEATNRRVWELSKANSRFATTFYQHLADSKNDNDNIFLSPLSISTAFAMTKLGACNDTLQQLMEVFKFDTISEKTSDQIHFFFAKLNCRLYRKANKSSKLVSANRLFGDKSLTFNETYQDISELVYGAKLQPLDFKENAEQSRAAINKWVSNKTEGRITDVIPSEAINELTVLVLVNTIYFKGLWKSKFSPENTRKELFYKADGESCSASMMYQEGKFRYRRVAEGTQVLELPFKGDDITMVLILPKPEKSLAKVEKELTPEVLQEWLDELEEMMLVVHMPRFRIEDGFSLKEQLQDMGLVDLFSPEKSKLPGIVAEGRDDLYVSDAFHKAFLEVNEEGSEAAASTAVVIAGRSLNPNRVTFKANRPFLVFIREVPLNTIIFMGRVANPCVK
substance,measurement,setting,value
antithrombin III,K0.5,[1],299 nM
same,K0.5,[2],2970 nM
same,K0.5,[3],287 nM
same,K0.5,[4],9.55 µM
same,K0.5,[5],324 nM
same,K0.5,[6],266 nM
same,K0.5,K109N-FVIIa (human),330 nM
same,K0.5,[7],121 nM
same,K0.5,[8],78.8 nM
same,K0.5,[9],631 nM
same,K0.5,[10],2590 nM
same,K0.5,[11],179 nM
same,K0.5,[12],2310 nM
same,K0.5,[13],326 nM
same,K0.5,S52A/S60A-FVIIa (human),361 nM
same,K0.5,[14],62.1 nM
same,K0.5,[15],164 nM
same,K0.5,[16],271 nM
same,K0.5,[17],448 nM
same,K0.5,[18],1910 nM
same,K0.5,[19],3.31 µM
same,K0.5,[20],85 nM
same,K0.5,[21],317 nM
same,K0.5,[22],1220 nM
same,K0.5,[23],6.92 µM
same,K0.5,[24],3.21 µM
same,K0.5,[25],1150 nM
same,K0.5,[26],1000 nM
same,K0.5,[27],370 nM
same,K0.5,[28],1640 nM
same,K0.5,[29],2800 nM
same,K0.5,[30],308 nM
same,K0.5,[31],81.6 nM
same,K0.5,[32],67.7 nM and 67.1 nM
same,K0.5,[33],391 nM
same,K0.5,[34],404 nM
same,K0.5,H257S-FVIIa (human),723 nM
same,K0.5,[35],163 nM
same,K0.5,[36],2440 nM
same,K0.5,[37],484 nM and 314 nM
same,K0.5,[38],813 nM
same,K0.5,[39],333 nM
same,K0.5,[40],1350 nM
same,K0.5,[41],1550 nM
same,K0.5,[42],284 nM
same,K0.5,[43],244 nM and 219 nM
same,K0.5,[44],252 nM
same,K0.5,wild-type FVIIa (human),394 nM and 503 nM
same,K0.5,A175S-FVIIa (human),1330 nM
same,K0.5,[45],401 nM
same,K0.5,[46],508 nM and 325 nM
same,K0.5,[47],148 nM
same,K0.5,[48],336 nM
same,K0.5,[49],81.7 nM
same,K0.5,[50],3.63 µM
same,K0.5,[51],1390 nM
